According to article PMC7919409, “Crystal structures of adenylylated and unadenylylated PII protein GlnK from Corynebacterium glutamicum” (Acta Crystallographica. Section D, Structural Biology, 2021):

How the values were obtained:
[1] = target: the molecule itself; test: crystal structure; unGlnK, 2.2 Å, space group P4(3)2(1)2, one trimer per asymmetric unit; sitting drop, 292 K, 2.0 M ammonium sulfate, 5%(v/v) 2-propanol
[2] = target: the molecule itself; test: crystal structure; adGlnK, 1.8 Å, space group P3(2), six chains per asymmetric unit; hanging drop, 292 K, MgCl2, CaCl2, MOPS/HEPES pH 7.1, MPD, PEG 1000, PEG 3350

Row | Protein | stoichiometry N [1] | stoichiometry N [2]
1 | unmodified unadenylylated GlnK from Corynebacterium glutamicum (natural protein, C. glutamicum, not part of GlnK; PII protein GlnK, Corynebacterium glutamicum, UniProt Q79VF2; each subunit spans 112 residues; The His tag was cut off with thrombin; Homotrimer; also called unGlnK; UnGlnK; source: E. coli BL21(DE3), purified (HisTrap FF, thrombin cleavage of the His tag, Superdex 75 size-exclusion chromatography); not shown: His tag, N-terminal, cleaved) SLHACRMKLITAIVKPFTLTDIKDALEQAGVQGMTVTETQGFGQQKGHTEVYRGAEYAVDFVPKVKIEVIISDAQAEEVINIIVETARTGKVGDGKVWMTNIEELVRVRTGERGEAAL | 3 | 
2 | adenylylated GlnK from Corynebacterium glutamicum (natural protein, C. glutamicum, adenylylated Tyr51 (AMP moiety covalently linked to the hydroxyl group of Tyr51); almost fully adenylylated by mass spectrometry, PII protein GlnK, Corynebacterium glutamicum, UniProt Q79VF2; untagged (stop codon inserted before the Xa-Strep stretch of the vector); Homotrimer; also called adGlnK; AdGlnK) MKLITAIVKPFTLTDIKDALEQAGVQGMTVTETQGFGQQKGHTEVYRGAEYAVDFVPKVKIEVIISDAQAEEVINIIVETARTGKVGDGKVWMTNIEELVRVRTGERGEAAL |  | 3
